# Results published in the DeepSol protein solubility set.
# Experiment: soluble on expression in E. coli; label from the status in PepcDB or PDB records
row,Sequence,soluble on expression in E. coli
1,SLTITVLQGGNVLDLERGVLLEHHHVVIDGERIVEVTDRPVDLPNAQAIDVRGKTVMPGFIDCHVHVLASNANLGVNATQPNILAAIRSLPILDAMLSRGFTSVRDAGGADWSLMQAVETGLVSGPRIFPSGKALSQTGGHGDFRPRGDLLEPCSCCFRTGAIARVVDGVEGVRLAVREEIQKGATQIKIMASGGVASPTDPIANTQYSEDEIRAIVDEAEAANTYVMAHAYTGRAIARAVRCGVRTIEHGNLVDEAAAKLMHEHGAFVVPTLVTYDALAKHGAEFGMPPESVAKVASVQQKGRESLEIYANAGVKMGFGSDLLGEMHAFQSGEFRIRAEVLGNLEALRSATTVAAEIVNMQGQLGVIAVGAIADLVVLDGNPLEDIGVVADEGARVEYVLQRGTLVKRQAGGR,not soluble
2,SLTTLTVRVFTTAEIIYRKTVIALVCHLNCSRQETVTMNKTITALAIMMASFAANASVLPETPVPFKSGTGAIDNDTVYIGLGSAGTAWYKLDTQAKDKKWTALAAFPGGPRDQATSAFIDGNLYVFGGIGKNSEGLTQVFNDVHKYNPKTNSWVKLMSHAPMGMAGHVTFVHNGKAYVTGGVNQNIFNGYFEDLNEAGKDSTAIDKINAHYFDKKAEDYFFNKFLLSFDPSTQQWSYAGESPWYGTAGAAVVNKGDKTWLINGEAKPGLRTDAVFELDFTGNNLKWNKLAPVSSPDGVAGGFAGISNDSLIFAGGAGFKGSRENYQNGKNYAHEGLKKSYSTDIHLWHNGKWDKSGELSQGRAYGVSLPWNNSLLIIGGETAGGKAVTDSVLITVKDNKVTVQN,not soluble
3,SLVHKKIVVPSATDMATRFTQDSFVFDCLSMYYVIDDPWAENCLAAGVNATNVTFGTEQPWDIVLRDFDSGLEKIERSPYLALATNRQEIDAANKQGKLAVIIGTQGSAMVDLEFHRLRTMHRLGMRYFGLAYTGPTMFADGCGESRNAGLSFAGIELIDACNDLGLILDLSHVGHRSREEAVARSRFPVYTHSNSYALNPNDRNTTDETARAIRAKGGIMGICGLPKTVHPENATLNELLDHADHWVKTIDAAHVGFGLDFVEAYKSDRSTMPAASRLWRTRRPDIFGTVEEFHLQDYPLGIASIKQLPNLTQGLFDRGYAEKEVAGIIGGNWLRHFTEVYG,soluble
4,SLVSAQRAIIDPEGKVLINKVNFIDGGLKAPDEVVRKMVRMGTNIIGEPVCGLYPARLIALTSGYSARIPYTIDLDFWMQLLRLGKLWMIDEPLCAFRISNLSWSSRIGEMRHKQFLAFMEEVAADELFQINDLDLFIGRFNSAVQSMTSLMGFKLFAGSAAEKRVIAVQ,not soluble
5,SLVSVRCAECKGKLLCGRSKCPLLEKYRFLKEIKIDSRILDPSPPSIFVGRVGYPKVYAGPLVSINADPVYADSPWLWKSIEEVIRLRTSMLRVSRRFRVEDVREEKKELTEMQEMTAAIKPVDVEAEIRKISRKAEFDDVMQPMGYSAIAESIKLAENPKIPDKVEKVYYDDMKAYEALSYLYNHGFSTYYLQKIFSAGILGERKSRKLVPTRWSITAVHSIVGEAIKREIAAYKPIDKTLLFNYEHFGNHFEVILSPENYFFQLVEIWQRKSFWSPKRTGLGLTART,soluble
6,SMAENGDNEKMAALEAKICHQIEYYFGDFNLPRDKFLKEQIKLDEGWVPLEIMIKFNRLNRLTTDFNVIVEALSKSKAELMEISEDKTKIRRSPSKPLPEVTDEYKNDVKNRSVYIKGFPTDATLDDIKEWLEDKGQVLNIQMRRTLHKAFKGSIFVVFDSIESAKKFVETPGQKYKETDLLILFKDDYFAKKNE,soluble
7,SMAGCVVIVGSGVIGRSWAMLFASGGFQVKLYDIEQQQIRNALENIRKEMKLLEQAGSLKGSLSVEEQLSLISGCPNIQEAVEGAMHIQECVPEDLELKKKIFAQLDSIIDDRVILSSSTSCLMPSKLFAGLVHVKQCIVAHPVNPPYYIPLVELVPHPETAPTTVDRTHALMKKIGQCPMRVQKEVAGFVLNRLQYAIISEAWRLVEEGIVSPSDLDLVMSEGLGMRYAFIGPLETMHLNAEGMLSYCDRYSEGIKHVLQTFGPIPEFSRATAEKVNQDMCMKVPDDPEHLAARRQWRDECLMRLAKLKSQV,soluble
8,SMATPNQTACNAESPVALEEAKTSGAPGSPQTPPERHDSGGSLPLTPRMESHSEDEDLAGAVGGLGWNSRSPRTQSPGGCSAEAVLARKKHRRRPSKRKRHWRPYLELSWAEKQQRDERQSQRASRVREEMFAKGQPVAPYNTTQFLMNDRDPEEPNLDVPHGISHPGSSGESEAGDSDGRGRAHGEFQRKDFSETYERFHTESLQGRSKQELVRDYLELEKRLSQAEEETRRLQQLQACTGQQSCRQVEELAAEVQRLRTENQRLRQENQMWNREGCRCDEEPGT,soluble
9,SMGNPQLISAGAKFRAAVAAEQPLQVVGAITAYAAKMAEAVGFKAVYLSGGGVAANSLGIPDLGISTMDDVLVDANRITNATNLPLLVDIDTGWGGAFNIARTIRSFIKAGVGAVHLEDQVGQKRCGHRPGKECVPAGEMVDRIKAAVDARTDETFVIMARTDAAAAEGIDAAIERAIAYVEAGADMIFPEAMKTLDDYRRFKEAVKVPILANLTEFGSTPLFTLDELKGANVDIALYCCGAYRAMNKAALNFYETVRRDGTQKAAVPTMQTRAQLYDYLGYYAYEEKLDQLFNQGRN,soluble
10,SMGTKLKKSNNDITIFSENEYNEIVEMLRDYSNGDNLEFEVSFKNINYPNFMRITEHYINITPENKIESNNYLDISLIFPDKNVYRVSLFNQEQIGEFITKFSKASSNDISRYIVSLDPSDDIEIVYKNRGSGKLIGIDNWAITIKSTEEIPLVAGKSKISKPKITGSERIMYRYKTRYSFTINKNSRIDITDVKSSPIIWKLMTVPSNYELELELINKIDINTLESELLNVFMIIQD,soluble
11,SNAEKAVLIGEKEADITFVTWGSQKGPILDVIEDLKEEGISANLLYLKMFSPFPTEFVKNVLSSANLVIDVESNYTAQAAQMIKLYTGIDIKNKILKYNGRHMTEDEILKSAKEILNK,soluble
12,SNAEWESITPPVVDAPAVVEFFSFYCPPCYAFSQTMGVDQAIRHVLPQGSRMVKYHVSLLGPLGHELTRAWALAMVMKETDVIEKAFFTAGMVEKRLHSPDDVRRVFMSATGISRGEYDRSIKSPAVNDMVALQERLFKEYGVRGTPSVYVRGRYHINNAAFGAFSVENFRSRYAAVVRKLLAGNPDAD,soluble
13,SNAHKGTLYVVATPLGNLDDMTFRAVNTLRNAGAIACEDTRRTSILLKHFGIEGKRLVSYHSFNEERAVRQVIELLEEGSDVALVTDAGTPAISDPGYTMASAAHAAGLPVVPVPGA,soluble
14,SNAMEHKIVHVGDIPVANDKPFTLFAGMNVLESRDLAMQICEHYVKVTDKLGIPYVFKASFDKANRSSVHSYRGPGLEEGMKIFQELKETFGVKIITDVHTEAQAQPVADVVDVIQLPAFLARQTDLVEAMAKTGAVINVKKPQFMSPGQVGNIVEKFAECGNDKVILCERGSCHGYDNLVVDMLGFGVMKQASNGSPIIFDVTHSLQMRDPSGAASGGRREQTVELAKAGLATGIAGLFIEAHPNPDKARCDGPSALPLDKLEPFLAQMKALDDLIKSFAHIDIR,soluble
15,SNAMIYPYKEKKPKIASSAFIADYVTITGDVYVGEESSIWFNTVIRGDVSPTIIGDRVNVQDQCTLHQSPQYPLILEDDVTVGHQVILHSCHIKKDALIGMGSIILDGAEIGEGAFIGAGSLVSQGKKIPPNTLAFGRPAKVIRELTAEDRKDMERIRTQYVEKGQYYKSLQK,soluble
16,SNAMRKDETSNTSPDISVAQPASALRYHLRPPRRNDGAAIHQLVSECPPLDLNSLYAYLLLCEHHAHTCVVAESPGGRIDGFVSAYLLPTRPDVLFVWQVAVHSRARGHRLGRAMLGHILERQECRHVRHLETTVGPDNQASRRTFAGLAGERGAHVSEQPFFDRQAFGGADHDDEMLLRIGPFTHPPH,soluble
17,SNAMRNKNMSTIYQTSATASAGRNGVVSTEDKLLELNLSYPKEMGGSGTATNPEQLFAVGYAACFSNAILHVAREAKVALKEAPVTATVGIGPNGQGGFALSVALAAHIALEDEQARQLVTVAHQVCPYSNAVRGNIDVQVSVNGLAL,soluble
18,SNAMSLEKLDTNTFEQLIYDEGKACLVMFSRKNCHVCQKVTPVLEELRLNYEESFGFYYVDVEEEKTLFQRFSLKGVPQILYFKDGEYKGKMAGDVEDDEVEQMIADVLED,soluble
19,SNANVGVFVLMHGDSTASSMLKTAQELLGTSIGTAMNMPLTMEVQTMYEQLRNQVITQKESLNNGILLLTDMGSLNSFGNMLFEETGIRTKAITMTSTMIVLEAIRMASVGRSLEDIYQNIQLSFESVVREQFRSSLQK,soluble
20,SNASNAVKRKGVEVIIALDISNSMLAQDVQPSRLEKAKRLISRLVDELDNDKVGMIVFAGDAFTQLPITSDYISAKMFLESISPSLISKQGTAIGEAINLATRSFTPQEGVGRAIIVITDGENHEGGAVEAAKAAAEKGIQVSVLGVGMPEGAPIPVEGTNDYRRDREGNVIVTRLNEGMCQEIAKDGKGIYVRVDNSNSAQKAISQEISKMAKSDVE,soluble
21,SNRFIAVFSDITRHKQTEEDLLRSEQHYRLLHETMLQGVVYQDASGKIISMNPAAERILGKTPAEFLGSSSVGEEYLTIREDGSMFPGLEHPAMVSLRTGQKVQGVVMGVYNPRENFYRWININAVPIFRTGEDRPFQVYTLFDDI,not soluble
22,SNRLDGKVAIITGGTLGIGLAIATKFVEEGAKVMITDRHSDVGEKAAKSVGTPDQIQFFQHDSSDEDGWTKLFDATEKAFGPVSTLVNNAGIAVNKSVEETTTAEWRKLLAVNLDGVFFGTRLGIQRMKNKGLGASIINMSSIEGFVGDPSLGAYNASKGAVRIMSKSAALDCALKDYDVRVNTVHPGYIKTPLVDDLPGAEEAMSQRTKTPMGHIGEPNDIAYICVYLASNESKFATGSEFVVDGGYTAQ,soluble
23,SPEIMKNLSNNFGKAMDQCKDELSLPDSVVADLYNFWKDDYVMTDRLAGCAINCLATKLDVVDPDGNLHHGNAKDFAMKHGADETMAQQLVDIIHGCEKSAPPNDDKCMKTIDVAMCFKKEIHKLNWVPNMDLVIGEVLAEV,soluble
24,SPFDANKLYCSEVLAILLQDNDENRELLGELDGIDVLLQQLSVFKRHNPSTAEEQEMMENLFDSLCSCLMLSSNRERFLKGEGLQLMNLMLREKKISRSSALKVLDHAMIGPEGTDNCHKFVDILGLRTIFPLFMKSPRKIKKVGTTEKEHEEHVCSILASLLRNLRGQQRTRLLNKFTENDSEKVDRLMELHFKYLGAMQVADKKIEGEKHDMVRRGEIIDNDTEEEFYLRRLDAGLFVLQHICYIMAEICNANVPQIRQRVHQILNMRGSSIKIVRHIIKEYAENIGDGRSPEFRENEQKRILGLLENF,not soluble
25,SPLHWLQWERGGVGSDQDLGCHWLPLPTGSDGGDAVEYNPNLLDDPQWPCGKHKRVLIFASYMTTVIEYVKPADLKKDMNETFREKFPHIKLTLSKIRSLKREMRNLSEECSLEPVTVSMAYVYFEKLVLQGKLNKQNRKLCAGACVLLAAKISSDLRKSEVKQLIDKLEERFRFNRKDLIGFEFTVLVALELALYLPENQVLPHYRRLTQQF,not soluble
26,SPSAQELKEQGNRLFVGRKYPEAAACYGRAITRNPLVAVYYTNRALCYLKMQQPEQALADCRRALELDGQSVKAHFFLGQCQLEMESYDEAIANLQRAYSLAKEQRLNFGDDIPSALRIAKKKRWNSIEERRIHQESELHSYLTRLIAAERERELEECQRNHEGHEDDGHIRAQQACIEAKHDKYMADMDELFSQVDEKRKKRDIPDYLCGKISFELMREPCITPSGITYDRKDIEEHLQRVGHFNPVTRSPLTQEQLIPNLAMKEVIDAFISENGWVEDY,soluble
27,SPVYGVKAVPVERIRANSYNPNVTAPPEMRLLELSIWEDGYTMPCVCYYIEKEDVYELVDGYHRYKVMMTSPRIYKRENGLLPVTVIRKDLAERMASTIRHNRARGMHK,soluble
